# Reference: patent publication US20220142994A1, “Beta-Carboline Compounds And Use Thereof For The Non-Cytotoxic And Immunological Treatment Of Cancer” (AC BIOSCIENCE SA, priority 2019, published 2022)
# How the values were obtained:
# [1] = tested on: PD-L1 on melanoma B16 cells; assay: PD-L1 expression level by flow cytometry; type: cell-based, murine; details: 5 μM harmine or 50 μg/ml interferon, 24 hours
# Experimental: Melanoma B16 cells were treated by 5 μM harmine or 50 μg/ml interferon for 24 hours. PD-L1 level was assessed by flow cytometry using the FMI mode.
# This can be considered as a favourable property because PD-L1 overexpression in tumour cells is constantly associated with poorer overall survival in cancer patients.
# [2] = tested on: L929 cells; details: cited from earlier work
molecule,measurement,setting,value
"interferon gamma: interferon gamma, known to increase the MHC I density at the cell membrane; positive control (protein, UniProt P01580 23-155, looked up) Interferon gamma: HGTVIESLESLNNYFNSSGIDVEEKSLFLDIWRNWQKDGDMKILQSQIISFYLRLFEVLKDNQAISNNISVIESHLITTFFSNSKAKKDAFMSIAKFEVNNPQVQRQAFNELIRVVHQLLPESSLRKRKRSRC",PD-L1 expression at the membrane,[1],huge effect
same,fluorescent intensity (MHC class I and actin staining),[2]; IFN-γ pre-treated cells compared to cells only,more fluorescent intensity
same,actin density,[2],significant increase of actin density
